# Assay results: US7402575B2, “Methods of treating inflammation” (priority 2003, dated 2008)
# T1: lysozyme c (Lzm-S) (Canis lupus familiaris, UniProt P81709)
# T1 construct: Lzm-S was purified in a manner described by Grobler et al (14); from tissue
# T1 sequence (P81709 1-130): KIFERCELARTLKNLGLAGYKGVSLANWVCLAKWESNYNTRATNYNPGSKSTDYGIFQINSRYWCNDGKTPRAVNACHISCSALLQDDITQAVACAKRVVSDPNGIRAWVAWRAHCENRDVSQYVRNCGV
# B1: Proteinase K: nonspecific proteolytic enzyme attached to beaded agarose (protein, UniProt P06873 106-384, looked up)
# Proteinase K: AAQTNAPWGLARISSTSPGTSTYYYDESAGQGSCVYVIDTGIEASHPEFEGRAQMVKTYYYSSRDGNGHGTHCAGTVGSRTYGVAKKTQLFGVKVLDDNGSGQYSTIIAGMDFVASDKNNRNCPKGVVASLSLGGGYSSSVNSAAARLQSSGVMVAVAAGNNNADARNYSPASEPSVCTVGASDRYDRRSSFSNYGSVLDIFGPGTSILSTWIGGSTRSISGTSMATPHVAGLAAYLMTLGKTTAASACRYIADTANKGDLSNIPFGTVNLLAYNNYQA
# modifications: attached to agarose beads
# Molecular target: T1, lysozyme c (Lzm-S)
# Assay: Effect of enzyme treatment (of Lzm-S or of the trabeculae) on Lzm-S's depressant effect in right ventricular trabecular preparation
# Format: cell-based, dog
# Description: In subsequent experiments, the objective was to determine whether pretreatment of Lzm-S with the proteolytic enzyme proteinase-K reduced the extent to which myocardial depression developed in the in vitro preparation (7). Proteinase-K (attached to beaded agarose; Sigma Chemical, St Louis, Mo.) was added to the pure Lzm-S preparation. The effects of proteinase-K treated and nontreated Lzm-S on isometric tension were compared between the samples. Since proteinase-K is a non-specific proteolytic enzyme, a specific competitive inhibitor of lysozyme, TAC (chitotriose) was subsequently examined to determine whether it prevented the depression in isometric tension observed in the in vitro preparation (16,17).
# Regardless of the type of carbohydrate structure to which Lzm-S may bind, it is possible to deglycosylate the carbohydrate structure by means of exoglycosidases in which a specific sugar residue is removed from the terminal end of the carbohydrate tree (47). […] In group 2, the trabeculae were initially bathed in sialidase (60 μl; 5 U/ml) for two hours to remove any N-acetylneuramic acid (NeuNAc) residues, after which the effect of Lzm-S was determined (all kits from Prozyme, San Leandro, Calif.; kit GE 23; Sialidase A). […]
molecule,measurement,value
B1,Effect of enzyme treatment on Lzm-S's depressant activity,reduction in depressant activity
